Source: patent US20250277030A1 (Zymeworks, published 2025)

T1: human sodium-dependent phosphate transporter 2B (NaPi2b) (human, UniProt O95436 1-690)
T1 sequence: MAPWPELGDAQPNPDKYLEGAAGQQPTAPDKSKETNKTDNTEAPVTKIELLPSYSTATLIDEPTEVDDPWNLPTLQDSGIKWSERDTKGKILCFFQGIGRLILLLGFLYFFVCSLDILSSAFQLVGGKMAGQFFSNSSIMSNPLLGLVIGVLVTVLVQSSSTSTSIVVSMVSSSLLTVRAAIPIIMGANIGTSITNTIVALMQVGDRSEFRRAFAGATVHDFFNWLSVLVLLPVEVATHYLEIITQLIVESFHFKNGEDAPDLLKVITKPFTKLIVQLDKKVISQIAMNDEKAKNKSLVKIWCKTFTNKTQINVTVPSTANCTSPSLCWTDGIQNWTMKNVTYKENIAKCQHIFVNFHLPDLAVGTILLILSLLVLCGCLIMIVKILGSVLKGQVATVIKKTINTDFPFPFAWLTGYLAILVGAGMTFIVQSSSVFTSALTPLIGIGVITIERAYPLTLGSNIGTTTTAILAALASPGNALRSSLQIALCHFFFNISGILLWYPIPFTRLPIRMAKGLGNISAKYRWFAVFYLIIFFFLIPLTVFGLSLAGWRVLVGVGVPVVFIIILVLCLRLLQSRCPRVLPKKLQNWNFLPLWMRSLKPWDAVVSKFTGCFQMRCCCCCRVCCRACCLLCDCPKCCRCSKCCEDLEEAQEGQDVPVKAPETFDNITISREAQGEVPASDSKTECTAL


Assays:
[1] = target: T1, human sodium-dependent phosphate …; assay: cell-based or functional assay
[2] = target: T1, human sodium-dependent phosphate …; assay: flow cytometry, IGROV-1 cells (endogenous NaPi2b), 24 h at 4 °C
Protocol: (§1) IGROV-1 cells express endogenous NaPi2b at a high level.
(§2) Briefly, cells were seeded at 50,000 cells/well in conical-bottom 96-well plates and treated with test antibody for 24 hours at 4° C. to prevent internalization. […] Following incubation, cells were washed and stained with anti-Human IgG Fc AF647 conjugate (Jackson Immuno Research Labs, West Grove, PA; Cat. No. 109-605-098) at 4° C. for 30 min. Following incubation and washing, fluorescence was detected by flow cytometry on a BD LSRFortessa™ Cell Analyzer (BD Biosciences, Franklin Lake, NJ) with 1,000 minimum events collected per well. The AF647/APC-A GeoMean (fluorescence signal geometric mean, proportional to anti-Human AF647 binding) was calculated for the live cell population using FlowJo™ Version 10.8.1 (BD Biosciences, Franklin Lake, NJ) and plotted for each test antibody using GraphPad Prism Version 9 (GraphPad Software, San Diego, CA).

[3] = target: T1, human sodium-dependent phosphate …; assay: flow cytometry, IGROV-1 cells (endogenous NaPi2b), 24 h at 4 °C; apparent Kd
Protocol: as §1, §2

[4] = target: T1, human sodium-dependent phosphate …; assay: flow cytometry on IGROV-1 cells (endogenous NaPi2b), 24 h at 4 C, anti-human IgG Fc AF647 detection
Protocol: as §1, §2

[5] = target: T2, KLH (Sigma-Aldrich, H8283); assay: non-specific binding ELISA, KLH coated at 5 µg/mL, antibody at 100 nM
T2 construct: also called keyhole limpet hemocyanin
Protocol: NS-ELISA was carried out in Corning®96-well EIA/RIA Easy Wash™ Clear Flat Bottom Polystyrene High Bind Microplate coated overnight at 4° C. with 50 μL of Heparin (Sigma, H3149) diluted with 50 mM sodium carbonate pH 9.6 to a final concentration of 250 μg/mL. The plate was incubated for 2 days at room temperature, wells that were coated with heparin were not covered to allow air dry. […] 50 μL each of insulin, KLH, dsDNA and ssDNA were added to a 96 well plate, followed by the incubation at 37° C. for 2 h. The coating materials were removed, and the plate was blocked with 200 μL of Gibco™ PBS pH7.4, 0.1% Tween®20, and incubated for 1 h at room temperature with shaking at 200 rpm. The plate was washed 3 times with Gibco™ PBS pH7.4, 0.1% Tween 20. […] Reactions were stopped after approximately 10 minutes by adding 100 μL of 1 M HCl to each well, and absorbance was read at 450 nm. Binding scores were calculated as the ratio of the ELISA signal of the antibody (antibody-treated) to the signal of a well containing buffer instead of the primary antibody (untreated). The cutoffs considered for each binding molecule (ssDNA, KLH, insulin, dsDNA and heparin) were internally calculated, based on the average of Zymeworks Inc. produced antibodies and antibodies benchmarks published in the literature.

[6] = target: T1, human sodium-dependent phosphate …; assay: KinExA, IGROV-1 cells, monovalent format
Protocol: The binding affinity of anti-NaPi2b antibody constructs was assessed by Kinexa in the endogenous NaPi2b-expressing cell line, IGROV-1.
(§3) The cell-binding assay was set up using the antibody constructs or variants as constant binding partner at two different concentrations of 50 pM and 500 pM. For the titration curve with antibody variants fixed at 50 pM, at least 10 million IGROV-1 cells were used as titrant. For the titration curve with antibody variants fixed at 500 pM, at least 5 million cells were used as titrant. The antibody variants and cells were mixed in PBS pH 7.4, 1 mg/mL BSA, 0.2% NaN₃ and incubated at 4° C. for 7 days with gentle rotation until equilibrium was reached. After incubation, the mixture of antibody variants and cells was centrifuged to separate the cells from the unbound free antibody variants. The free antibody variants were loaded onto the KinExA 3200 (Sapidyne, Boise, Idaho) with biotinylated—anti-human IgG PMMA as solid phase and 0.5 μg/mL of Alexa 647 goat anti-human IgG (Jackson ImmunoResearch, West Grove, PA) as detection antibody.
(§4) N-curve analysis was used to calculate the affinity and receptor expression level with the concentrations of antibody variant as reference point.

[7] = target: T1, human sodium-dependent phosphate …; assay: KinExA, IGROV-1 cells (endogenous NaPi2b) as titrant, monovalent antibody constant at 50 and 500 pM, N-curve analysis
Protocol: as §3, §4

[8] = target: T1, human sodium-dependent phosphate …; assay: flow cytometry, HCC-78 cells (endogenous NaPi2b)
Protocol: (§5) Briefly, HEK293-6e cells were transfected for ˜24 hours to transiently express human NaPi2b, cynomolgus or mouse NaPi2b, at 1 μg of DNA per 1 million cells. Following transfection, 50,000 cells per well were seeded in V-bottom 96-well plates and incubated with 200 nM of primary antibody for 18-24 hours at 4° C. to prevent internalization. Post-incubation, cells were washed and stained with anti-Human IgG Fc AF647 conjugate (Jackson Immuno Research Labs, West Grove, PA, Cat. No. 109-605-098, Lot. No. 124868) at 4° C. for 1 hour. Following staining and washing, fluorescence was detected by flow cytometry on BD LSRFortessa™ Cell Analyzer (BD Biosciences, Franklin Lake, NJ) with 10,000 minimum events collected per well. The AF647/APC-A GeoMean (fluorescence signal geometric mean, proportional to anti-Human AF647 binding) was calculated for the live singlet cell population for each primary antibody using FlowJo™ v8 software (BD Biosciences, Franklin Lake, NJ). The Bmax and Kd of each primary antibody were calculated using GraphPad Prism Version 9 (GraphPad Software, San Diego, CA)
(§6) The ability of ADCs to bind to cells expressing NaPi2b was assessed. […] Binding to endogenous high NaPi2b-expressing cell lines IGROV-1 and HCC-78 was assessed by flow cytometry according to methods described in Example 5.

[9] = target: T1, human sodium-dependent phosphate …; assay: flow cytometry, IGROV-1 cells (endogenous NaPi2b)
Protocol: as §5, §6

[10] = target: T1, human sodium-dependent phosphate …; assay: flow cytometry, HCC-78 cells (endogenous NaPi2b); apparent Kd
Protocol: as §5, §6

[11] = target: T1, human sodium-dependent phosphate …; assay: flow cytometry, IGROV-1 cells (endogenous NaPi2b); apparent Kd
Protocol: as §5, §6

[12] = target: T1, human sodium-dependent phosphate …; assay: flow cytometry on HCC-78 cells (endogenous NaPi2b), 4 C, anti-human IgG Fc AF647 detection
Protocol: as §5, §6

[13] = target: T1, human sodium-dependent phosphate …; assay: flow cytometry on IGROV-1 cells (endogenous NaPi2b), 4 C, anti-human IgG Fc AF647 detection
Protocol: as §5, §6

Bmax (MFI) [2] | Kd [3] | fold lower binding affinity than chimeric parental antibody construct (v29814) [6] | Kd [7] | Bmax [8] | Bmax (MFI) [9] | Kd [10] | Kd [11] | Binder | In vitro cytotoxicity EC50 (nM), HCC-78 [1] | In vitro cytotoxicity EC50 (nM), IGROV-1 [1] | In vitro cytotoxicity EC50 (nM), OVCAR-3 [1] | further results
41200 MFI | 1.22 nM |  |  |  |  |  |  | v18992-DL2, MX35 conjugated to MT-VC-Compound 1 (DAR 3) (antibody, human IgG1, kappa, MT-VC-Compound 1 (DL2) on cysteines freed by reduction; positions not given; MT-VC-Compound 1 (DL2) on cysteines freed by reduction; positions not given; DAR 3 for the whole antibody, also called MX35 Compound 1 ADC; MX35-DL2 ADC) heavy 1: GQVQLVQSGAEVVKPGASVKMSCKASGYTFTGYNIHWVKQAPGQGLEWIGAIYPGNGDTSYKQKFRGRATLTADTSTSTVYMELSSLRSEDSAVYYCARGETARATFAYWGQGTLVTVSSASTKGPSVFPLAPSSKSTSGGTAALGCLVKDYFPEPVTVSWNSGALTSGVHTFPAVLQSSGLYSLSSVVTVPSSSLGTQTYICNVNHKPSNTKVDKKVEPKSCDKTHTCPPCPAPELLGGPSVFLFPPKPKDTLMISRTPEVTCVVVDVSHEDPEVKFNWYVDGVEVHNAKTKPREEQYNSTYRVVSVLTVLHQDWLNGKEYKCKVSNKALPAPIEKTISKAKGQPREPQVYVYPPSRDELTKNQVSLTCLVKGFYPSDIAVEWESNGQPENNYKTTPPVLDSDGSFALVSKLTVDKSRWQQGNVFSCSVMHEALHNHYTQKSLSLSPG heavy 2: not shown light: GDIQMTQSPSSLSASVGDRVTITCSASQDIGNFLNWYQQKPGKTVKVLIYYTSSLYSGVPSRFSGSGSGTDYTLTISSLQPEDFATYYCQQYSKLPLTFGQGTKLELKRTVAAPSVFIFPPSDEQLKSGTASVVCLLNNFYPREAKVQWKVDNALQSGNSQESVTEQDSKDSTYSLSSTLTLSKADYEKHKVYACEVTHQGLSSPVTKSFNRGEC | 0.13 nM | 0.11 nM | 0.02 nM | EC50 (read off the curve) [4]: ~1 nM
47800 MFI | 1.6 nM |  |  |  |  |  |  | v29452 humanized anti-NaPi2b antibody (H1L3) (antibody, human IgG1, kappa, V domains shown) VH: QVQLVQSGAEVKKPGASVKVSCKASGFTFTSYNVHWVRQAPGQGLEWMGAISPGNGDLSYAQKFQGRVTMTRDTSTSTVYMELSSLRSEDTAVYYCARGRTGMGAVDYWGQGTLVTVSS VL: DVQMTQSPSSLSASVGDRVTITCRASQDVYSYLNWYQQKPGKAVKLLIYYTSRLQSGVPSRFSGSGSGTDYTLTISSLQPEDIATYYCQQYNIFPWTFGQGTKLEIKR |  |  |  | NS-ELISA binding score (ratio of signal between antibody-treated and untreated) [5]: 1.34 ratio
 |  | ~2 fold | 0.297 nM |  |  |  |  | v36123, monovalent format of humanized antibody variant 29452 (antibody, V domains shown, Only said to be the monovalent format of v29452; also called v36123 (VH1/VL3)) VH: QVQLVQSGAEVKKPGASVKVSCKASGFTFTSYNVHWVRQAPGQGLEWMGAISPGNGDLSYAQKFQGRVTMTRDTSTSTVYMELSSLRSEDTAVYYCARGRTGMGAVDYWGQGTLVTVSS VL: DVQMTQSPSSLSASVGDRVTITCRASQDVYSYLNWYQQKPGKAVKLLIYYTSRLQSGVPSRFSGSGSGTDYTLTISSLQPEDIATYYCQQYNIFPWTFGQGTKLEIK |  |  |  | 
 |  | ~2 fold | 0.283 nM |  |  |  |  | v36124, monovalent format of humanized antibody variant 29456 (antibody, V domains shown, Only said to be the monovalent format of v29456; also called v36124 (VH1/VL2)) VH: QVQLVQSGAEVKKPGASVKVSCKASGFTFTSYNVHWVRQAPGQGLEWMGAISPGNGDLSYAQKFQGRVTMTRDTSTSTVYMELSSLRSEDTAVYYCARGRTGMGAVDYWGQGTLVTVSS VL: DVQMTQSPSSLSASVGDRVTITCRASQDVYSYLNWYQQKPGKAVKLLIYYTSRLQSGVPSRFSGSGSGTDYTLTISSLQPEDFATYYCQQYNIFPWTFGQGTKLEIK |  |  |  | 
 |  |  |  | 20400 | 81400 MFI | 2.32 nM | 0.77 nM | v29456-DL2, v29456 conjugated to MT-VC-Compound 1 (DAR 4) (antibody, human IgG1, kappa, MT-VC-Compound 1 (DL2) on cysteines freed by reduction; positions not given; MT-VC-Compound 1 (DL2) on cysteines freed by reduction; positions not given; DAR 4 for the whole antibody, also called v29456-MT-VC-Compound 1) heavy: not shown light: DVQMTQSPSSLSASVGDRVTITCRASQDVYSYLNWYQQKPGKAVKLLIYYTSRLQSGVPSRFSGSGSGTDYTLTISSLQPEDFATYYCQQYNIFPWTFGQGTKLEIKRTVAAPSVFIFPPSDEQLKSGTASVVCLLNNFYPREAKVQWKVDNALQSGNSQESVTEQDSKDSTYSLSSTLTLSKADYEKHKVYACEVTHQGLSSPVTKSFNRGEC | 0.06 nM | 0.08 nM | 0.01 nM | EC50 (read off the curve) [12]: ~2 nM
 |  |  |  | 21800 | 77000 MFI | 2.27 nM | 0.67 nM | v29456-DL1, v29456 conjugated to MC-GGFG-AM-DXd1 (DAR 8) (antibody, human IgG1, kappa, MC-GGFG-AM-DXd1 (DL1) on cysteines freed by reduction; positions not given; MC-GGFG-AM-DXd1 (DL1) on cysteines freed by reduction; positions not given; DAR 8 for the whole antibody, also called v29456-MC-GGFG-AM-DXd1) heavy: not shown light: DVQMTQSPSSLSASVGDRVTITCRASQDVYSYLNWYQQKPGKAVKLLIYYTSRLQSGVPSRFSGSGSGTDYTLTISSLQPEDFATYYCQQYNIFPWTFGQGTKLEIKRTVAAPSVFIFPPSDEQLKSGTASVVCLLNNFYPREAKVQWKVDNALQSGNSQESVTEQDSKDSTYSLSSTLTLSKADYEKHKVYACEVTHQGLSSPVTKSFNRGEC | 0.51 nM | 1.14 nM |  | EC50 (read off the curve) [13]: ~0.7 nM
